In patent US6942988 one finds percent of input bound in the absence of competitor, Ki and Kd data, which are given here for twelve substances.

For the first assay, the target named is carboxyl-terminal Myc-tagged Ptc-CTD (mouse Ptc with a 140-residue carboxyl-terminal deletion; amino acids 1-1,291) (mouse) (UniProt Q61115). In words: binding of 32P-Shh-N to EcR-293 cells expressing Ptc-CTD without competitor.
carboxyl-terminal Myc-tagged Ptc-CTD (mouse Ptc with a 140-residue carboxyl-terminal deletion; amino acids 1-1,291) (mouse), sequence (Q61115 1-1291, stated change not applied): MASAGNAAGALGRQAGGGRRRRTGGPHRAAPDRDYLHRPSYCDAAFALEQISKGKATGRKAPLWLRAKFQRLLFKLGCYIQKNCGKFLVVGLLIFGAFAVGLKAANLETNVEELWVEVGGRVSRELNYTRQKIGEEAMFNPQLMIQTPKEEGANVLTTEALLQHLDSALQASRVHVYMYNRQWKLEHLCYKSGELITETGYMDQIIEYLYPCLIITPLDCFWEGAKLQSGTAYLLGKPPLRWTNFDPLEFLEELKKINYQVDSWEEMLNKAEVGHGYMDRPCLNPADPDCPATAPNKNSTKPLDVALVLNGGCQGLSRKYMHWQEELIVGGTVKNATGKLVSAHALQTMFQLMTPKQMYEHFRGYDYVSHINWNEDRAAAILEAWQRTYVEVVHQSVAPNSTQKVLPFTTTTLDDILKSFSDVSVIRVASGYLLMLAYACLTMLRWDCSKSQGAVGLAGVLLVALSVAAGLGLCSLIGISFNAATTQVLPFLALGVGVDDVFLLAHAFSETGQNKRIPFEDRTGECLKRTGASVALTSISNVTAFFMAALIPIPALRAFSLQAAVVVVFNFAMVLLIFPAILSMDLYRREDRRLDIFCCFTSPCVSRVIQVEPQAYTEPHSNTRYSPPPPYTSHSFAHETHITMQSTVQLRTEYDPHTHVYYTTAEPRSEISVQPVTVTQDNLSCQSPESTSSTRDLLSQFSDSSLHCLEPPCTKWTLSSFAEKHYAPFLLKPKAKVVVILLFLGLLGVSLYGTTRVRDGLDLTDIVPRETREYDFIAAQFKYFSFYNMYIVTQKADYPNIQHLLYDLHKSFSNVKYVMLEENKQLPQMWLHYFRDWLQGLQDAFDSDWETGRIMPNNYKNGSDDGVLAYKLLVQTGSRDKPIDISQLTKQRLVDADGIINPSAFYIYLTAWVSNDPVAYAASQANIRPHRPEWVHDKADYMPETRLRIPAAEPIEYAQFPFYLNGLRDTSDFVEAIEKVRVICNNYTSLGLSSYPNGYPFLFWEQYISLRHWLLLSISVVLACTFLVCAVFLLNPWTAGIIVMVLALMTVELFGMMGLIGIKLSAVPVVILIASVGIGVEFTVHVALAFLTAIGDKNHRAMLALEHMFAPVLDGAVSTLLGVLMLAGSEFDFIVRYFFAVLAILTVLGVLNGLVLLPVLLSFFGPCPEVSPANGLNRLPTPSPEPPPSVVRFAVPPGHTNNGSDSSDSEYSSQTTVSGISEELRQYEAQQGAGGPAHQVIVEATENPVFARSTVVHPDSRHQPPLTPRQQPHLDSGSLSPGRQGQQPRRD
Consider “32P-labeled Shh-N protein with a protein kinase A site tag (RRASV) at the carboxy terminus (from UniProt Q62226 25-198) (ligand)”, for which the percent of input bound in the absence of competitor is 35 % of input.

For a further assay the target is unchanged. In words: competition with 0.9 nM 32P-Shh-N for binding to EcR-293 cells expressing Ptc-CTD, 4 C; KI from IC50.
As for “Shh-N SF protein (R154A, S157A) (from UniProt Q62226 25-198) (ligand)”, the Ki (usually the dissociation constant of the complex between target and ligand, obtained from inhibition or displacement) was determined as 9.1 nM. Regarding “Shh-N E177A (EA) mutant protein (from UniProt Q62226 25-198) (ligand)”, the Ki was found to be 1.7 nM. “Shh-N SC mutant protein (P42A, K46A, R154A, S157A, S178A, K179A) (from UniProt Q62226 25-198) (ligand)” had a Ki greater than 36 nM. The substance “Shh-N SA altered protein (K75A, E76A, Y81A, D105A, N116A, E189A, K195A) (from UniProt Q62226 25-198) (ligand)” showed a Ki of 0.66 nM. This lies in the sub-nanomolar range. Substance “Shh-N H135A, E177A double mutant (EH) protein (from UniProt Q62226 25-198) (ligand)” had a Ki of 1.7 nM. “Shh-N SD altered protein (E90A, D132A, E138A) (from UniProt Q62226 25-198) (ligand)” gave a Ki of 0.84 nM. “Shh-N H135A (HA) mutant protein (from UniProt Q62226 25-198) (ligand)”: the Ki amounted to 0.63 nM. This Ki and that of the substance before are within 1.5-fold of each other.

Turning to “Shh-N SB altered protein (N51A, V52A, T56A, E168A) (from UniProt Q62226 25-198) (ligand)”, the Ki amounted to 0.48 nM. Regarding “Shh-N SG protein (S178A, K179A) (from UniProt Q62226 25-198) (ligand)”, the Ki worked out at 4.3 nM.

In turn, “Shh-N SE protein (P42A, K46A) (from UniProt Q62226 25-198) (ligand)” gave a Ki of 2.4 nM. Compared with the last substance, the Ki is about 1.8-fold lower.

A further assay shares this target. In words: Scatchard analysis of the high-affinity component of 32P-Shh-N binding to EcR-293 cells expressing Ptc-CTD, 4 C.
In the case of “32P-labeled Shh-N protein with a protein kinase A site tag (RRASV) at the carboxy terminus (from UniProt Q62226 25-198) (ligand)”, the Kd (commonly a measure of binding affinity in units of concentration) stood at 0.48 nM.

Another assay shares this target. Briefly: Table 1 'Ptc-CTD affinity'; for wild type the dissociation constant (KL), as from the Scatchard analysis of 32P-Shh-N on EcR-293 cells expressing Ptc-CTD.
“wild-type Sonic hedgehog amino-terminal signaling domain protein (Shh-N), aa 25-198 (from UniProt Q62226 25-198) (ligand)”: the Kd is 0.48 nM.
